The series deals with the molecule itself. Description: Western blot with anti-His6 antibody: band of about 92 kDa against a theoretical mass of 47 kDa. For orientation: In western blotting, separated proteins are transferred to a membrane and probed.

B1: HvNEP-1 (Hordeum vulgare nepenthesin-1-type aspartic endoprotease), ΔHvNEP-1 with C-terminal His6 tag, expressed in Pichia pastoris KM71H (enzyme)
chain: DADTPKVAMASSGAGSSFRLAAHHDHALSRSDDGFLHVQSRLDNLLPSEANVTTLRPPVASPLDMAFSVVVGLGSGKGRHDYNLKLDASGSLTWVQCKPCNPKQPQRGPLFDPKASSTFQQVAGTSQICHPPYPMEPAGQQCAFHLSGMGGMSVHGYVAMENLTMGPEAMKEFVFGCSHSTGHFNSHGTFAGVAAMGKMPTSLVMQVAARGQTRFSYCLFSGGASRHGFLRFGADVPSRSGLRTTKILPALDAHESQYYVSLVGISLDAKRLTGVRPEMFARQRGGEGGCVVDPGTPLTVLVREAYRVVEDAVWSDLRRNKAERVQREGYGLCVRKTAEIKRHLQSLSLHFAEETARLVVKPEQLFVAVESRLHGAALCLAMRPGERTVIGALQQVDTRFVYDLKDAKLSFASEPCSQDTAGVDHHHHHH
notes: also called HvNEP-1 protease; truncated HvNEP-1
Regarding B1, the binding result is “binds”.

The record behind these values is patent US20200325490A1 (AARHUS UNIVERSITET, published 2020).
